Experimental data: US20250388666A1 (BRIGHAM AND WOMEN S HOSPITAL, published 2025)
Residue numbers refer to the chain shown, from its start. Names and notes keep the numbering of the source. Where two headings read alike, the source gives them in different places. Each block holds one binder with its values, some of them ahead of it.

What was measured:
[1] = target: T1, CEACAM1-HIS (Sino Biologics Inc.) (Homo sapiens (Human), UniProt P13688 35-428); assay: SPR multi-cycle
T1 construct: bought; not shown: His tag
T1 sequence: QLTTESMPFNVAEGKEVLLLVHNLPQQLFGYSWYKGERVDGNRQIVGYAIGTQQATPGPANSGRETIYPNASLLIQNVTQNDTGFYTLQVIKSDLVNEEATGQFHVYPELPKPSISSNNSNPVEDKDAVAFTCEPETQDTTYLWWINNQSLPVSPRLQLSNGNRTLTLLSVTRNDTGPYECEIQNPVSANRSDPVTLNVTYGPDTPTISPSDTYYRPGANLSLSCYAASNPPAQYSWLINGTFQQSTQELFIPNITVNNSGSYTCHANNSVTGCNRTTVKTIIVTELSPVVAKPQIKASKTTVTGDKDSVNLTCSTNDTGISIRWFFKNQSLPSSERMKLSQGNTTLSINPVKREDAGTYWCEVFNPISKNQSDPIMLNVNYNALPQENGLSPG

[2] = target: T1, CEACAM1-HIS (Sino Biologics Inc.); assay: SPR multi-cycle, IgG on Protein A
Procedure: (§1) As an alternative approach to assess the binding of the antibody combinations and the control antibodies to CEACAM1, a kinetic analysis was performed on a Biacore T200 running Biacore T200 Evaluation Software V2.0.1. All experiments were run at 25° C. with HBS-P+ running buffer (pH 7.4).
For multi-cycle kinetic analysis purified antibody was immobilized at a protein concentration of 1 μg/mL in HBS-P+. At the start of each cycle, antibody was captured on Protein A to give an RU of ˜100 and the surface allowed to stabilize. Kinetic data was obtained at a flow rate of 35 μl/min to minimize any potential mass transfer effects. Multiple repeats of the blank (no CEACAM1) and a repeat of a single concentration of the analyte were programmed into the kinetic run in order to check the stability of both the surface and analyte over the kinetic cycles. For kinetic analysis, a 2-fold dilution series was selected from 100 to 1.5625 nM CEACAM1. The association phase of CEACAM1 was monitored initially for 180 seconds. In the subsequent experiment a longer association time (275 seconds) was used in order to better reach steady state. The dissociation phase was measured for 250 seconds. Regeneration of the Protein A surface was conducted using 2 injections of 10 mM glycine-HCL pH 1.5 at the end of each cycle.
The signal from the reference channel Fc1 was subtracted from that of Fc2, Fc3 and Fc4 to correct for differences in non-specific binding to a reference surface, a global Rmax parameter was used in the 1-to-1 binding model. The relative KD compared to the chimeric parental antibody was calculated by dividing the KD of the Composite Human Antibody™ variants by that of the chimeric parental antibody on the same chip.

[3] = target: T1, CEACAM1-HIS (Sino Biologics Inc.); assay: SPR single-cycle, IgG on Protein A
Procedure: as §1
In order to assess the binding of all Composite Human Antibody™ variants, single cycle kinetic analysis was performed on the supernatants of all the transiently transfected HEK EBNA cells. Purified chimeric antibody and purified chimeric antibody spiked into HEK EBNA media were used as positive controls. Supernatants were diluted in HBS-P+ to a concentration of 1 μg/mL (as determined by an IgG quantitation ELISA). At the start of each cycle, antibodies were loaded onto Fc2, Fc3 and Fc4 of a Protein A chip and captured at a flow rate of 8 μL/min to give an RU of ˜100. The surface was then allowed to stabilize. Single cycle kinetic data was obtained at a flow rate of […] to minimize any potential mass transfer effects. Multiple repeats of the chimeric antibody were performed to check the stability of the surface and analyte over the kinetic cycles. The signal from the reference channel Fc1 (no antibody) was subtracted from that of Fc2, Fc3 and Fc4 to correct for differences in non-specific binding to a reference surface. A 5 point 2-fold dilution range from 3.125 to 50 nM CEACAM1 without regeneration between each concentration was used. The association phase for the 5 injections of increasing concentrations of CEACAM1 was monitored for 150 seconds and a single dissociation phase was measured for 150 seconds following the last injection of CEACAM1. Regeneration of the Protein A was conducted using 2 injections of 10 mM glycine-HCL pH 1.5 followed by a stabilization period of 500 seconds.
In the raw sensorgrams for the single cycle kinetics, the signal from each antibody blank run (no CEACAM1) was subtracted to correct for differences in surface stability.

[4] = target: T2, human GST-CEACAM1 (human, UniProt P13688 35-141, limits assumed); assay: competition ELISA vs murine parent antibody
T2 construct: printed both as GST-CEACAM1 and CEACAM1-GST; also called human CEACAM1-GST protein; hCEACAM1-GST; not shown: GST tag
T2 sequence: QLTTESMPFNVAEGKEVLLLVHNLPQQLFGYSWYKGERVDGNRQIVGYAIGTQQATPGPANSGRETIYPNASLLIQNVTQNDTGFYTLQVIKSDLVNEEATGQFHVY
Procedure: The binding of the purified chimeric antibody to human CEACAM1 was assessed in a competition ELISA assay. Nunc Immuno MaxiSorp 96 well flat bottom microtitre plates were pre-coated with 1 μg/ml human GST-CEACAM1 in 1×PBS, overnight at 4° C. The following day the plates were blocked for 1 hour at room temperature with 2% BSA/PBS before washing 2× with PBS/0.05% Tween 20 pH 7.4.
The binding of the purified antibodies to human CEACAM1 were assessed in a competition ELISA assay as described above. The ability of each variant to compete against the murine parental antibody for binding to the GST-CEACAM1 was compared to that of the chimeric antibody (VH0/Vκ0), which was included on each plate.

[5] = target: T3, CEACAM1 (Sino Biological) (human, UniProt P13688 35-428, limits assumed); assay: SPR single-cycle
T3 construct: may be the same as CEACAM1-HIS; also called hCEACAM1; biotinylated soluble CEACAM1
T3 sequence: T1 sequence
Procedure, shortened: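 Humanized affinity-matured IgGs from crude supernatants captured on Protein A to ~100 RU, with CEACAM1 analyte injected at 25–100 nM (three-point, two-fold) in HBS-P+ without regeneration. 200 s association per injection, 300 s single dissociation; reference-channel and blank subtracted.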

[6] = target: T3, CEACAM1 (Sino Biological); assay: SPR multi-cycle, IgG on Protein A
Procedure: Multi-cycle kinetics analysis was performed on the twelve lead antibodies using a Biacore T200 instrument running Biacore T200 Evaluation Software V3.0.1 (Uppsala, Sweden) to establish an accurate affinity for CEACAM1. The purified antibodies were diluted to a concentration of […] in HBS-P+. At the start of each cycle, each antibody was captured on the Protein A surface to give an RL of ˜100 RU. Following capture, the surface was allowed to stabilize. Kinetic data was obtained using a flow rate of […] to minimize any potential mass transfer effects. For the kinetics analysis, CEACAM1 was used. Multiple repeats of the blank ([…]) and a repeat of a single concentration of the analyte were programmed into the kinetic run in order to check the stability of both the surface and analyte over the kinetic cycles. For kinetic analysis, a two-fold dilution range was selected from 200 to 3.125 nM CEACAM1. The association phase of CEACAM1 was monitored for 275 seconds and the dissociation phase was measured for 250 seconds. Regeneration of the Protein A surface was conducted using two injections of 10 mM glycine-HCL pH 1.5 at the end of each cycle.
The signal from the reference channel Fc1 was subtracted from that of Fc2, Fc3 and Fc4 to correct for differences in non-specific binding to a reference surface, and a global Rmax parameter was used in the 1-to-1 binding model. The relative KD was calculated by dividing the KD of the RSB02 Parent by that of the humanized and affinity matured variants on the same chip.

[7] = target: T4, CEACAM3 (Sino Biological) (human, UniProt P40198 35-155, limits assumed); assay: binding ELISA on plate-coated CEACAM (0.5 µg/mL); antibody at 1.67, 0.062 and 0.0069 µg/mL; signal as % of parent IgG on CEACAM1 at 1.67 µg/mL on the same plate
T4 construct: also called hCEACAM3
T4 sequence (looked up): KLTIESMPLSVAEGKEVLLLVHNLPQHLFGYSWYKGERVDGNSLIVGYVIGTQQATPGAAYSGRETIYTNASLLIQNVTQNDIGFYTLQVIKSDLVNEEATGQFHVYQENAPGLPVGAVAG

[8] = target: T4, CEACAM3 (Sino Biological); assay: as above; remark: listed apart in the source
[9] = target: T5, CEACAM6 (Sino Biological) (human, UniProt P40199 35-320); assay: as above
T5 construct: also called hCEACAM6
T5 sequence (looked up): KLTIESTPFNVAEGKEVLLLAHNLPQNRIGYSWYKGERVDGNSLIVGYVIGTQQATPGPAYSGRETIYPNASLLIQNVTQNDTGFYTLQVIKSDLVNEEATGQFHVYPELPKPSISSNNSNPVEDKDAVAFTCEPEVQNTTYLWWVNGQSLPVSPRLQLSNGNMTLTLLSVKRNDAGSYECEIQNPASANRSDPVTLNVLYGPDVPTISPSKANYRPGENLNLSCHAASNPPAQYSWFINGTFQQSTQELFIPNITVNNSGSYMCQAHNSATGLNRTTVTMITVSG

- average relative KD to chimeric parental antibody [1]: 1.27 ratio
- relative KD to chimeric parental antibody expt 1 [1]: 1.29 ratio
- relative KD to chimeric parental antibody expt 2 [1]: 1.25 ratio
- Kd [2]: 27.8 nM
- koff [2]: 0.00496 s⁻¹
- kon [2]: 179000 M⁻¹ s⁻¹
- relative KD to chimeric parental antibody [2]: 1.25 ratio
- Kd [3]: 138 nM
- relative KD to chimeric parental antibody [3]: 3.2 ratio
- average relative IC50 (normalized to chimeric antibody) [4]: 1.6 ratio
B1: VH2/Vκ2 (antibody, V domains shown)
VH: EVQLLESGGGLVQPGGSLRLSCAASGFIFSSHGMSWVRQAPGKGLEWVATISSGGTYTYYPDSVKGRFTISRDNSKNTLYLQMNSLRAEDTAMYYCARHDFDYDAAWFAYWGQGTLVTVSS
VL: EIVLTQSPATLSLSPGERATLSCRANSSVSYMYWYQQKPGQAPRPWIYLTSNRATGVPARFSGSGSGTDYTLTISSLEPEDFATYYCQQWSSNPPTFGQGTKLEIK

- Kd [5]: 78 nM
- fold better than Parent (KD) [5]: 2.03 fold
- Kd [6]: 13.5 nM
- koff [6]: 0.00409 s⁻¹
- kon [6]: 302000 M⁻¹ s⁻¹
- relative KD to Parent [6]: 6.31 ratio
- binding result [7]: no binding (tested: 1.67 µg/mL)
B2: He17/L1 (antibody, IgG4, V domains shown)
VH: EVQLLESGGGLVQPGGSLRLSCAASGFSFSDYYLYWVRQAPGKGLEWVATISVGGGQTSYADSVKGRFTISRDNSKNTLYLQMNSLRAEDTAMYYCTRARTYGPAWFAYWGQGTLVTVSS
VL: DIVMTQSPDSLAVSLGERATINCKSSQSLLNSANQKNYLAWYQQKPGQPPKLLIYFASTRESGVPDRFSGSGSGTDFTLTISSLQAEDVAVYYCQSHYPFYYTFGGGTKVEIK
notes: IgG4 S241P, kappa; also called 17 / 1; H17/L1

- Kd [5]: 163 nM
- fold better than Parent (KD) [5]: 3.38 fold
- Kd [6]: 147 nM
- koff [6]: 0.00437 s⁻¹
- kon [6]: 29800 M⁻¹ s⁻¹
- relative KD to Parent [6]: 1.3 ratio
- binding result [8]: no binding (tested: 1.67 µg/mL)
- binding result [9]: no binding (tested: 1.67 µg/mL)
B3: Parent VH/L4#2 (antibody, IgG4, V domains shown)
VH: B2 VH with A99G, R100L, T101Y
VL: B2 VL with F100Y, Y101P
notes: IgG4 S241P, kappa; also called VHp/L4 #2; VH2 N56Q / 4#2

- Kd [5]: 56 nM
- fold better than Parent (KD) [5]: 2.83 fold
- Kd [6]: 101 nM
- koff [6]: 0.00362 s⁻¹
- kon [6]: 35700 M⁻¹ s⁻¹
- relative KD to Parent [6]: 1.84 ratio
- binding result [8]: no binding (tested: 1.67 µg/mL)
- binding result [9]: no binding (tested: 1.67 µg/mL)
B4: Parent VH/L18 (antibody, IgG4, V domains shown)
VH: B2 VH with A99G, R100L, T101Y
VL: B2 VL with Y98F, F100Y, Y101P, Y102F
notes: IgG4 S241P, kappa; also called VHp/L18; VH2 N56Q / 18
